Molecular target: the molecule itself
Assay: SEC; size exclusion chromatography of recombinant Cbz-ase (Fig. S32); conditions not told in the main text

B1: Sphingomonas paucimobilis Cbz-ase (amidohydrolase), recombinant (enzyme)
chain: MVQPTPTPQSELPGLIARDMEGLMTLYRDLHANPELSLQEVNTAAKLAKRLKAMKFDVTEKVGGTGVVAVMKNGSGPVLLIRADMDGLPVVEQTGLDFASKVRTKTPEGVETGVMHACGHDTHMTAFIETAKLLSSSKDKWKGTLVMILQPAEEVGKGARDMLEDGLYTRFPRPTHAIAFHDAANLQAGVVGYTPGYALANVDSVDIVVKGLGGHGAYPQTTRDPIVLGSRIVTSLQTLVSREQDPQDPAVVTVGSFQAGAKHNIIPDQALLLLTVRSYSDETRAKLIKGIERIARGEAIAAGVPDDKMPVVSVKDEFTPSTYNPPEFAEQMGALLKGHFAEGRVVKTPAVMGGEDFGRFYRADKSINSFIFWVGGVPADKMAAAQAGQITLPSLHSPFWAPEADKVIATASEAMTVLAMDILKKD
stoichiometry N: 4

Reference: article PMC11389852, “Developing deprotectase biocatalysts for synthesis†” (Faraday Discussions, 2024)
